Molecular target: the molecule itself
Experiment: cryo-EM structure; Dr-VSP (C302S) in MSP2N2 lipid nanodiscs (Dr-VSP:MSP2N2:lipid 1:4:400), 20 mM Tris, 150 mM NaCl, 5 mM EGTA, pH 8, 5.6 mg/ml; class of particles with the cytoplasmic domain as a dimer, 3.0 Å

B1: Danio rerio voltage-sensing phosphatase (Dr-VSP) with the active site cysteine mutated to serine (C302S) (enzyme, UniProt Q4V9E4 1-511, looked up)
chain: MTSVHFNPGLDSKEVNGNSVKEEAEVQIDDGKEETKDPDTMYHQVRKKITPFVMSFGFRVFGLVLIILDIIMVIVDLSLSEKSRDVGGAPETVSLVISFFFLIDVLLRVYVEGFKVYFSSKLNIVDACIVVITLVVTMIYAFSDFSGASLIPRVVTFLRSLRILILVRIFRLASQKRELEKVTRRMVSENKRRYQKDGFDLDLTYVTERVIAMSFPSSGKQALYRNPIREVVRFLDTKHMDHYKVFNLCSEKGYDPKFFHYRVERVMIDDHNVPSLDDMLRYTACVRDWMAADSRNVIAIHSKGGKGRTGTMVCTWLIDSDQFESAQESLDYFGERRTDKSMSSKFQGVETPSQSRYVGYYEIMKNQYNRQLPPRKSLKIKSIRIHSIAGVGKGNGSDLKLKIIVKHELVFQCVCAKQHNCTVFPDTGSNAVVISLQDGPIVTGDVKVMFESSAGLPKGYEDCPFYFWFNTSFVENYRLFLSREELDNPHKPKTWDIYKEDFGVTLSFTEP
notes: Danio rerio voltage-sensing phosphatase (Dr-VSP), full-length construct in a modified pPICZ-B vector, with C302S; only the cytoplasmic domain is resolved in the dimer map; The methods name the full-length Dr-VSP construct; also called Dr-VSP (C302S); Danio rerio VSP C302S; not shown: eGFP, C-terminal, cleaved; His10, C-terminal, cleaved
  stoichiometry N: 2

— PMC11289409, “Coupling sensor to enzyme in the voltage sensing phosphatase” (Nature Communications, 2024)
